Results as given in the supplement of paper PMC10567573.

B1: TFE3 (parent)
chain: ELPNIKREISETEAKALLKERQKK
B2: SMG5 (parent)
chain: TNPDLIIVCAQSSQSLWNRLSVLL

Variants of: B1
Assay: protein stability index of a GFP-peptide fusion (GPS, HEK-293T) (PSI 1-6); higher = more stable
Details: c terminus: a fixed tail appended
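Further: lentivirally expressed fusions sorted by FACS into six bins by GFP to DsRed ratio, PSI derived from sequencing read proportions per bin multiplied by bin number.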

Protein stability index, by site and new letter:
P3: N 4.13
K15: E 1.86
E8: H 3.31 | D 2.69
L2: M 2.84
L17: T 2.68 | W 2.7
A16: F 2.08 | P 4.2
S10: Y 2.35 | G 3
I9: C 3.74 | W 4.13 | D 5.15
E11: R 2.5 | H 3.1 | F 3.43
T12: E 5.55 | K 3.85 | S 2.69
K6: R 2.02
K19: F 2.65 | N 2.57 | Y 3.06
E1: R 3.51 | Q 2.99
I5: C 3.53
R21: Q 2.73 | V 2.53
E13: Y 3.32
N4: A 2.88 | Y 3.29
R7: W 2.84

Variants of: B2
Assay: as above
Details: c terminus: a fixed tail appended

Protein stability index of substitutions, site by site:
L20: E 3.06 | A 2.15 | T 2.02 | P 2.92 | I 2.41 | V 1.7 | K 2.77 | F 1.81 | W 3.72 | S 2.19 | Y 2.11 | C 2.88 | G 2.45 | H 1.7 | Q 2.08 | M 2.24 | D 1.83 | N 3.27
L23: E 2.75 | F 2.33 | P 3.47 | R 2.83 | V 2.8 | D 1.73 | S 2.68 | C 3.62 | G 3.55 | N 3.27 | H 3.59 | K 1.99 | I 2.27 | A 1.84 | W 2.85
S21: L 2.07 | F 3.03 | K 2.19 | E 3.57 | G 3.14 | I 3.08 | P 2.6 | Y 3.25 | R 2 | Q 2.87 | V 2.88 | M 1.58 | C 2.21 | N 3.04 | W 2.75 | H 2.52 | A 3.16 | T 3.07
V22: F 2.52 | M 2.98 | S 2.36 | W 1.24 | G 1.81 | H 1.84 | L 3.21 | R 2.23 | A 2 | E 1.91 | K 2.17 | N 1.58 | T 2.99 | D 2.03 | I 4.58 | Y 1.91 | Q 1.65 | C 3.03 | P 2.62
R19: V 1.86 | M 2.1 | H 2.54 | D 3.35 | T 3.21 | Q 2.95 | P 3.09 | F 1.84 | W 2.23 | K 2.5 | S 2.06 | N 5.11 | A 1.74 | G 3.61 | L 1.57 | E 3.19 | C 2.09 | Y 1.41 | I 1.75
N18: C 2.27 | A 3.11 | Q 2.4 | L 5.57 | G 2.69 | R 1.49 | T 2.56 | K 2 | P 3.09 | Y 3.31 | W 1.92 | E 1.56 | I 2.43 | H 2.56 | D 2.97 | V 1.91
L24: H 2.54 | V 3.05 | A 2.73 | G 2.84 | E 3.27 | S 1.38 | W 2.26 | Y 1.85 | T 2.64 | Q 1.92 | R 1.93 | N 2.45 | D 2.8 | P 1.38 | M 3.19 | F 2.86
W17: V 2.79 | I 2.47 | Y 2.88 | T 2.58 | P 2.82 | K 2.05 | Q 1.9 | S 3.57 | L 3.96 | M 3.06 | F 3.58 | E 3 | D 1.77
